PMC10273302 (Science (New York, N.Y.), 2023)
Where a chain is given by its changes, count along the chain named.

T1: EBV minimal peptide PPSTSSKLRPRWTFT (spotted for dot blot) (Human herpesvirus 4 (Epstein-Barr …))
T1 construct: also called EBV gp350 minimal peptide; 72153; source: "recombinant peptide" spotted on nitrocellulose
T1 chain: PPSTSSKLRPRWTFT

B1: EBV_c124 (antibody, V domains shown)
VH: QVQLVQSGAEVRKPGASVKVSCKASGYTFNTYFIQWVRQAPGQGLEWMGVINSSGSGTRYAPKFRGRVILTRDTSTSTAFMELSSLTSEDTAVYYCARAAEGDYGDSALDYWGQGTLVSVSS
VL: SYELTQPHSVSVSPGQTASIACSGEKLDKKYTCWYQQRPGQSPVLVIYQDRKRPSGIPERFSGSNSGNTATLTISGTQAIDEADYYCQVWDSNTVVFGGGTKLTVL
notes: recombinant human IgG
B2: EBV_c101 (antibody, V domains shown)
VH: QVHLVQSGTEVKKPGASVKVSCKASGYTFIDYFIHWVRQAPGQGLEWMGIINPGGGSTSYAQKFRGRVTVTRDASTSTVYLELRSLRSDDSAVYYCARGTAVSTNLGLLFDLWGQGTLVSVSS
VL: SYELTQPPSVSVSPGQTARITCSGDDLPKNYAYWYQQKSGQAPTLVINEDNKRPSGIPERFSGSSSGTMATLTISGAQVEDEADYYCFSADSSGTHSVFGGGTKVTVL
notes: recombinant human IgG
B3: EBV_c150 (antibody, V domains shown)
VH: QVLLVQSGAEVRKPGASVKLSCTASGYNFTNYYIHWVRQAPGQGLEWMGILNPTGGGTIYPHNFRGRVTMTRETSTSTAYMELKNLTSDDTAVYYCARVPPDDGYFDYWGQGALVTVSS
VL: SYEPTQPPSVSVSPGQTARITCSGDALPKRYVYWYQQKSGQAPALVIYDDTKRPSGIPERFSGSSSGTMATLTINGAQVEDEADYYCYTTGSSVSHVVFGGGTKLTVL
notes: recombinant human IgG
B4: EBV_c186 (antibody, V domains shown)
VH: QVHLVQSGTEVRKPGASVKISCETSGFNFSDYYVHWVRQAPGQGLEWMGIINAGGGSTSYAQRFRGRVTVTRDTSTRSVYMELRSLAPNDTAVYYCTRDRDQRLLFDYWGQGSLLIVSS
VL: SSELTQPPSVSVSPGQTARITCSGDALPKNYAYWYQQKSGQAPVLVIYEDNKRPSGIPERFSGSSSGTTATLTISGAQMEDEGDYYCYSKDRFGGGTKVTVL
notes: recombinant human IgG
B5: EBV_c3 (antibody, V domains shown)
VH: QVHLVQSGAEVKKSGASVKVSCKASGFTFTNHDINWVRQAPGQGLEWMGWINPNSGNTGFAQKFRGRVTLTRNNSITTAYMELRGLTYEDTAIYYCARAFCNSDRCSPELFDPWGQGTLVTVSS
VL: QSVLTQPPSVSADPGQRVTISCSGSSSNIGNSYVSWYQQLPGTAPRFLIYDNNKRTSGIPDRFSGSKSGTSATLAITGLQTGDEADYYCATWDTSLRGVVFGGGTKLTVL
notes: recombinant human IgG; source: Expi293 or ExpiCHO, recombinant; filtered culture supernatant
B6: EBV_c127 (antibody, V domains shown)
VH: B5 VH with S14F, K19Q, T87R
VL: B5 VL with S25T, N31K, S32N, Y33F, L40F, R46K, T56A, T73I, T94N, V100L
notes: recombinant human IgG
B7: EBV_c138 (antibody, V domains shown)
VH: B5 VH with T87K
VL: B5 VL with Q16H, S25T, S32N, A75T, T77S
notes: recombinant human IgG
B8: EBV_c77 (antibody, V domains shown)
VH: B5 VH with K13R, R65Q, T87R
VL: B5 VL with S25T, S26G, S32N
notes: recombinant human IgG
B9: EBV_c83 (antibody, V domains shown)
VH: QEQLVQSGTAVKKPGASVKVSCKTSRDTFTIYYIHWVRQAPGQGLEWMGIINPSGGNTSHAQKFQGRVTMTSDASTSTVYMELSSLRFEDTATYYCARVGYNWGSHSVSSPGAMDVWGQGTTVSVSS
VL: SIELTQPSSVSVSPGQTATITCSGDVLPKQYAYWYQQKPGRAPMLVVYKDSERPSGISERFSGSSAGTAVTLTISAVQAEDEADYYCQSADTGGTYVIFGGGTKLTVL
notes: recombinant human IgG
B10: EBV_c120 (antibody, V domains shown)
VH: QVHLVQSGAEVKKPGASVKVSCKASGFAFTTYDINWVRQAAGQGLEWMGWMNPNSGNRGYAQKFQGRVTMTRNTSITTAYMELTSLTSEDTAVYYCARAYCNSNRCSPELFDPWGQGTQVTVSS
VL: QSVLTQPPSVSAAPGQMVTISCSGSSSNIGNNFVSWYQQLPGTVPKYVIYDNNKRPSGIPERFSGSRSGTSATLGITGLQTGDEADYYCATWDSSLRGVVFGGGTKLTVL
notes: as for B5
B11: EBV_c10 (antibody, V domains shown)
VH: B10 VH with K23Q, Q43H, S88P, E89D, Y100F
VL: B10 VL with S25G, L40I, N53D, G75V, S94N
notes: recombinant human IgG
B12: EBV_c63 (antibody, V domains shown)
VH: QVQLVQSGAEVKKPGASVKVSCKASGYTFTSYYIHWVRQAPGQGLEWMGIINPSDGTTDYAQRLQGRVTMTRVTSTSTVYMELSSLRSEDTAVYYCARDREQMVRGIIISNGLDVWGQGTTVTVSS
VL: QSALTQPASVSGSPGQSITFSCTGTSSDVGGYNFVSWYQQHPGKAPKLMIYDVTNRPSGVSNRFSGSKSGNTASLTISGLQAEDEADYYCSSYTSSSTLVFGTGTKVTVL
notes: recombinant human IgG
B13: EBV_c40 (antibody, V domains shown)
VH: QVQMVQSGAEVKRPGDSVRVSCKASGYIFTNYHLHWVRQAPGQGLEWMGIVTPNGSRTNYAQKFKGRVIMSSEASTNTLYMDLSSLKSEDTAVYFCARARDLYGDSDFDYWGQGTPVMVSS
VL: SYELSQPPSVSVSPGQTASVSCSGDSLGDKYVSWYQQRPGQSPVVVIYQDRKRPSGIPERFSGSNSGKAATLTISGAQAVDEATYFCQAWESSNVVFGGGTTLTVL
notes: recombinant human IgG
B14: EBV_c9 (antibody, V domains shown)
VH: QVQLVQSGAEVKKPGASVKISCKASGYNFTNYYMHWVRQAPGQGLEWMGVINPHDNTNYAQKFRGRFIVTKDTSTTTLHMELRGLRSEDTAVYYCARGPDYVGISSPFDYWGQGTLVTVSS
VL: SHELTQPPSVPVSPGQTARITCSGDGLPKNYAYWYQQKSGQAPVLVIYEDRKRPSGIPERFSGSSSGTMATLTISGAQVEDEADYYCYSGDSNGNHWVFGGGTKLTVL
notes: recombinant human IgG
B15: EBV_c61 (antibody, V domains shown)
VH: B14 VH with I20V, Y33F, I51L, P53S, H54G, D55A, K71R, G84S, Y101S, V102S
VL: B14 VL with Y31F, Q37K, M69T, V79E, E80D, D84E, S92T
notes: recombinant human IgG
B16: EBV_c149 (antibody, V domains shown)
VH: QVQLVQSGAEVKKPGASVKVSCKASGYNFTNYYMHWVRQAPGQGLEWMGVINPDGGSTSYAQKFRGRFIVTRDTSTTTLHMELRSLRSEDTAVYFCARGPDYVGISSPFDFWGQGTLVTVSS
VL: B14 VL
notes: recombinant human IgG
B17: EBV_c19 (antibody, V domains shown)
VH: QVQLVQSGAEVKKPGASVKLSCKASGYNFTNYYMHWVRQAPGQGLEWMGVINHGGLTNYAQRFRGRFIVTRDTSTTTLHMELRSLRSEDTAVYYCARGPDYGGNSSPFDNWGQGTLVTVSS
VL: B14 VL with S92I
notes: recombinant human IgG

Target: T1, EBV minimal peptide PPSTSSKLRPRWTFT …
Assay: far-Western, overlay or dot blot
Conditions: one partner purified

Row | Binder | binding result
1 | B1 | binds
2 | B2 | binds
3 | B3 | binds
4 | B4 | binds
5 | B5 | binds
6 | B6 | binds
7 | B7 | binds
8 | B8 | binds
9 | B9 | binds
10 | B10 | binds
11 | B11 | binds
12 | B12 | binds
13 | B13 | binds
14 | B14 | binds
15 | B15 | binds
16 | B16 | binds
17 | B17 | binds
